{"source": "patent US20170081647A1", "about": "“GENETIC DETECTION PLATFORM” (Pharmozyme, Inc., priority 2014, published 2017)", "molecules": {"B1": {"name": "Bio-HIS-ABS-Taq polymerase (protein)", "chain": "MASSLRQILDSQKIEWRSNAGGASHHHHHHGGASLAEAKVLANRELDKYGVSDYHKNLINNAKTVEGVKDLQAQVVESAKKARISEATDGLSDFLKSQTPAEDTVKSIELAEAKVLANRELDKYGVSDYYKNLINNAKTVEGVKALIDEILAALPGTFAHYMDPNLEALFQGPNSLPLFEPKGRVLLVDGHHLAYRTFHALKGLTTSRGEPVQAVYGFAKSLLKALKEDGDAVIVVFDAKAPSFRHEAYGGYKAGRAPTPEDFPRQLALIKELVDLLGLARLEVPGYEADDVLASLAKKAEKEGYEVRILTADKDLYQLLSDRIHVLHPEGYLITPAWLWEKYGLRPDQWADYRALTGDESDNLPGVKGIGEKTARKLLEEWGSLEALLKNLDRLKPAIREKILAHMDDLKLSWDLAKVRTDLPLEVDFAKRREPDRERLRAFLERLEFGSLLHEFGLLESPKALEEAPWPPPEGAFVGFVLSRKEPMWADLLALAAARGGRVHRAPEPYKALRDLKEARGLLAKDLSVLALREGLGLPPGDDPMLLAYLLDPSNTTPEGWPGRYGGEWTEEAGERAALSERLFANLWGRLEGEERLLWLYREVERPLSAVLAHMEATGVRLDVAYLRALSLEVAEEIARLEAEVFRLAGHPFNLNSRDQLERVLFDELGLPAIGKTEKTGKRSTSAAVLEALREAHPIVEKILQYRELTKLKSTYIDPLPDLIHPRTGRLHTRFNQTATATGRLSSSDPNLQNIPVRTPLGQRIRRAFIAEEGWLLVALDYSQIELRVLAHLSGDENLIRVFQEGRDIHTETASWMFGVPREAVDPLMRRAAKTINFGVLYGMSAHRLSQELAIPYEEAQAFIERYFQSFPKVRAWIEKTLEEGRRRGYVETLFGRRRYVPDLEARVKSVREAAERMAFNMPVQGTAADLMKLAMVKLFPRLEEMGARMLLQVHDELVLEAPKERAEAVARLAKEVMEGVYPLAVPLEVEVGIGEDWLSAKE"}, "B2": {"name": "Bio-HIS-ABS-Taq polymerase: Taq polymerase with N-terminal biotin-tag, His6 and albumin-binding protein fusion (SEQ ID NO: 1), expressed in E. coli (protein)", "chain": "B1 chain", "modifications": "N-terminal biotin; Synthetic polypeptide Bio-HIS-ABS-Taq polymerase"}}, "key": {"Taq polymerase": {"target": "T1, Taq polymerase (Thermus aquaticus, UniProt P19821, A391P/R392G/V390W)", "T1 construct": "made in house; host or cells: E. coli Rosetta 2 (DE3), plasmid pET21-Biotin-His6-ABP-Taq", "assay": "Polymerase activity in the presence of a polymerase inhibitor (amplification reaction at 45° C.)", "assay_type": "biochemical", "procedure": "The assay was fixed at a final volume of 100 μl, and contained reaction components at the following final concentrations: oligonucleotide of SEQ ID NO: 8; 40 μM, dNTPs; 200 μM (each), APS; 1.6 mM, ATP sulfurylase; 0.12 Units, D-Luciferin; 0.3 mM, and Luciferase; 3 μg.\nFIG. 9 illustrates a luminescence assay that indicates the Taq polymerase activity. As shown in FIG. 9A and FIG. 9B, a time course is initially indicated with a lag phase, normally less than 2 minutes, followed by a linear increase in luminescence. The rate of luminescence increase (slope) defines the Taq polymerase activity.\nHot Start Taq DNA polymerase was obtained from New England BioLabs (NEB). Taq polymerase from New England BioLabs was tested as a control. An amplification reaction was performed to determine the activity of Bio-HIS-ABS-Taq in the presence of human serum albumin (HSA) at 45° C. and to compare the activity of Bio-HIS-ABS-Taq in the presence of HSA with Hot Start Taq polymerase (NEB). The ratio of Bio-HIS-ABS-Taq to HSA is 1:1. Table 2 illustrates the activity of Bio-HIS-ABS-Taq in the presence of HSA compared to the activity of Hot Start Taq Polymerase from NEB."}, "[1]": {"target": "human serum albumin (HSA), P02768"}, "[2]": {"assay": "Protamine-based method optimization: Qubit protein remaining", "conditions": "protamine beads", "procedure": "For protamine attachment, NHS-activated Sepharose beads were utilized and coupling was performed in 0.1 M HEPES buffer (pH 7.0), with a protein to bead ratio of 25 mg of the protein to 1 ml bead suspension (0.5 ml packed), pre-washed with 1 mM HCl. Attachment of protamine to beads was completed by leaving the suspension on rotation overnight at 4° C., followed by washing with 0.1 M Tris (pH 8.5), to block any remaining NHS groups on beads. The procedure ensured overall coverage of Sepharose beads with the highly charged protamine molecules.\nDNA contaminant removal was accomplished using 15 μl of packed protamine-Sepharose beads per mg Taq polymerase, in 0.05 M sodium acetate, 0.2 M potassium chloride, pH 5.0. After leaving on rotation for 10 minutes, the suspension was centrifuged for 3 minutes at 1000×g, and the supernatant containing the enzyme was tested for DNA contamination, using a Qubit quantitation system.\npH Optimization: pH at 4.4, 4.75, 5.5, 6, and 7.7 were tested. Buffers used for adjusting the pH included acetate pH 4, acetate pH 5, MES pH 6, HEPES pH 7, and Tris pH 8. In each tube, 4 ul of the protamine bead slurry (protamine from Sigma-Aldrich) was used, 10 ul of buffer, 7 ul of 3.5 M KCl, and 140 ul of the buffer exchanged Bio-HIS-ABS-Taq polymerase. The initial concentrations of the polymerase and DNA contaminant were 0.478 mg/mL and 65.3 ng/mL, respectively.\nTable 4 illustrates the final concentrations of the Bio-HIS-ABS-Taq polymerase and DNA contaminant from a second set of experiment. The initial concentrations of the polymerase and DNA contaminant were 0.55 mg/mL and 65.3 ng/mL, respectively.\nTable 5 illustrates the final concentrations of the Bio-HIS-ABS-Taq polymerase and DNA contaminant from an experiment that modulates the salt concentration. The initial concentrations of the polymerase and DNA contaminant were 0.487 mg/mL and 82.9 ng/mL, respectively."}, "[3]": {"conditions": "relative to Control #2 (Taq, NEB)"}, "[4]": {"conditions": "KCl 0.145 M, initial polymerase 0.487 mg/mL"}, "[5]": {"conditions": "KCl 0.194 M, initial polymerase 0.487 mg/mL"}, "[6]": {"conditions": "KCl 0.242 M, initial polymerase 0.487 mg/mL"}, "[7]": {"conditions": "KCl 0.291 M, initial polymerase 0.487 mg/mL"}, "[8]": {"conditions": "KCl 0.340 M, initial polymerase 0.487 mg/mL"}, "[9]": {"conditions": "pH 4.4, initial polymerase 0.478 mg/mL"}, "[10]": {"conditions": "pH 4.75, initial polymerase 0.478 mg/mL"}, "[11]": {"conditions": "pH 5.5, initial polymerase 0.478 mg/mL"}, "[12]": {"conditions": "pH 6, initial polymerase 0.478 mg/mL"}, "[13]": {"conditions": "pH 7.7, initial polymerase 0.478 mg/mL"}, "[14]": {"conditions": "second set, pH 4.03, initial polymerase 0.55 mg/mL"}, "[15]": {"conditions": "second set, pH 4.22, initial polymerase 0.55 mg/mL"}, "[16]": {"conditions": "second set, pH 4.40, initial polymerase 0.55 mg/mL"}, "[17]": {"conditions": "second set, pH 4.80, initial polymerase 0.55 mg/mL"}}}
{"molecule": "Control #1 (Taq, NEB): Taq polymerase from New England BioLabs, tested as a control", "values": [{"measurement": "% activity", "setting": "Taq polymerase; Bio-HIS-ABS-Taq to HSA 1:1, relative to Control #1 (Taq, NEB)", "value": 100, "unit": "%"}, {"measurement": "% activity", "setting": "Taq polymerase; [3]", "value": 100, "unit": "%"}]}
{"molecule": "Hot Start (NEB): Hot Start Taq DNA polymerase obtained from New England BioLabs (NEB)", "values": [{"measurement": "% activity", "setting": "Taq polymerase; [3]", "value": 91, "unit": "%"}]}
{"molecule": "B1", "values": [{"measurement": "% activity", "setting": "[1]", "value": 73, "unit": "%"}]}
{"molecule": "B2", "values": [{"measurement": "% protein remaining (comp to buffer exch)", "setting": "[2]; [4]", "value": 105, "unit": "%"}, {"measurement": "Qubit protein remaining", "setting": "[2]; [4]", "value": 0.513, "unit": "mg/mL"}, {"measurement": "% protein remaining (comp to buffer exch)", "setting": "[2]; [5]", "value": 101, "unit": "%"}, {"measurement": "Qubit protein remaining", "setting": "[2]; [5]", "value": 0.495, "unit": "mg/mL"}, {"measurement": "% protein remaining (comp to buffer exch)", "setting": "[2]; [6]", "value": 99.9, "unit": "%"}, {"measurement": "Qubit protein remaining", "setting": "[2]; [6]", "value": 0.487, "unit": "mg/mL"}, {"measurement": "% protein remaining (comp to buffer exch)", "setting": "[2]; [7]", "value": 70, "unit": "%"}, {"measurement": "Qubit protein remaining", "setting": "[2]; [7]", "value": 0.339, "unit": "mg/mL"}, {"measurement": "% protein remaining (comp to buffer exch)", "setting": "[2]; [8]", "value": 55, "unit": "%"}, {"measurement": "Qubit protein remaining", "setting": "[2]; [8]", "value": 0.271, "unit": "mg/mL"}, {"measurement": "% protein remaining (comp to buffer exch)", "setting": "[2]; [9]", "value": 97, "unit": "%"}, {"measurement": "Qubit protein remaining", "setting": "[2]; [9]", "value": 0.462, "unit": "mg/mL"}, {"measurement": "% protein remaining (comp to buffer exch)", "setting": "[2]; [10]", "value": 60, "unit": "%"}, {"measurement": "Qubit protein remaining", "setting": "[2]; [10]", "value": 0.288, "unit": "mg/mL"}, {"measurement": "% protein remaining (comp to buffer exch)", "setting": "[2]; [11]", "value": 61, "unit": "%"}, {"measurement": "Qubit protein remaining", "setting": "[2]; [11]", "value": 0.292, "unit": "mg/mL"}, {"measurement": "% protein remaining (comp to buffer exch)", "setting": "[2]; [12]", "value": 64, "unit": "%"}, {"measurement": "Qubit protein remaining", "setting": "[2]; [12]", "value": 0.308, "unit": "mg/mL"}, {"measurement": "% protein remaining (comp to buffer exch)", "setting": "[2]; [13]", "value": 75, "unit": "%"}, {"measurement": "Qubit protein remaining", "setting": "[2]; [13]", "value": 0.360, "unit": "mg/mL"}, {"measurement": "% protein remaining (comp to buffer exch)", "setting": "[2]; [14]", "value": 94, "unit": "%"}, {"measurement": "Qubit protein remaining", "setting": "[2]; [14]", "value": 0.459, "unit": "mg/mL"}, {"measurement": "% protein remaining (comp to buffer exch)", "setting": "[2]; [15]", "value": 95, "unit": "%"}, {"measurement": "Qubit protein remaining", "setting": "[2]; [15]", "value": 0.486, "unit": "mg/mL"}, {"measurement": "% protein remaining (comp to buffer exch)", "setting": "[2]; [16]", "value": 96, "unit": "%"}, {"measurement": "Qubit protein remaining", "setting": "[2]; [16]", "value": 0.505, "unit": "mg/mL"}, {"measurement": "% protein remaining (comp to buffer exch)", "setting": "[2]; [17]", "value": 93, "unit": "%"}, {"measurement": "Qubit protein remaining", "setting": "[2]; [17]", "value": 0.497, "unit": "mg/mL"}]}
